Assay [1] addresses T1, recombinant human Fibroblast Activation Protein (FAP) with N-terminus 6x histidine tag (human, UniProt Q12884 26-760).
T1 construct: Bought protein; also called rFAP; rhFAP
T1 sequence: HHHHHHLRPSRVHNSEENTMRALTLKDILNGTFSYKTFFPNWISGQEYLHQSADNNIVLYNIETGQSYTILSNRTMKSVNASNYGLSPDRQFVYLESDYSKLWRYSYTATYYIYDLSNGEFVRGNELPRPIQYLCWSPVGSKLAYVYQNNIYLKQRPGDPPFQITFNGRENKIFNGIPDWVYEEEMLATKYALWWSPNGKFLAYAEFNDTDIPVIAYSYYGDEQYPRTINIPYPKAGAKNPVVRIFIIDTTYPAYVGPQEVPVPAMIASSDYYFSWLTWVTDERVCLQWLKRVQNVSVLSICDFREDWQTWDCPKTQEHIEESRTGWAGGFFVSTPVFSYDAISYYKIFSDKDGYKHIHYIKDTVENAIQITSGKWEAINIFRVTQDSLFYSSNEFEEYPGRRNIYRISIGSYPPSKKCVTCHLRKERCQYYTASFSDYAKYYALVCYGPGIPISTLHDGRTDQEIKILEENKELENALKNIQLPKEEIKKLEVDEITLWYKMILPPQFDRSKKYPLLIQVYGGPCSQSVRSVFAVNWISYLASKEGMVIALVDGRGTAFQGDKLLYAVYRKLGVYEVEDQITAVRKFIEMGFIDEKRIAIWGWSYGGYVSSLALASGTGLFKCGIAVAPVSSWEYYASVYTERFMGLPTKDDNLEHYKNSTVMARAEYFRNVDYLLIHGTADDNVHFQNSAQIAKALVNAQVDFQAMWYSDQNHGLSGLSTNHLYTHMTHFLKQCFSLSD
As to the kind of experiment: direct ELISA: rFAP directly coated (FAP).

For assay [2], the target named is T2, bovine serum albumin (BSA) (bovine, UniProt P02769 25-607).
T2 construct: Negative control antigen in the ELISAs
The assay is described as follows: direct ELISA: BSA coated directly on the plate. In general terms: ELISA stands for enzyme-linked immunosorbent assay.

Assay [3] has as its target T3, cFAP (mixture of three FAP peptides) (human).
T3 construct: A mixture of three separate peptides coated together, not a complex; The three chains are the three components; also called directly coated FAP peptides mixture
T3 peptide 1: HYIKDTVENAIQITS
T3 peptide 2: GWSYGGYVSSLALAS
T3 peptide 3: QVDFQAMWYSDQNHGL
As to the kind of experiment: direct ELISA: coated mixture of three FAP peptides (cFAP).

Assay [4] deals with T4, recombinant human Dipeptidyl Peptidase IV (DPPIV) (human, UniProt P27487 29-766, limits assumed).
T4 construct: Bought active enzyme; also called rhDPPIV; DPP4
As to the kind of experiment: sandwich ELISA: F19 coated as capture antibody, homologue titrated, HRP-labelled NI-206.82C2 as detection antibody; no signal means that no F19/antigen/82C2 sandwich formed. How it is done:
(§1) The coating solution was removed and the plate was blocked with 40 μL 2% BSA in PBS blocking buffer for 1 h at room temperature and then discarded. 30 uL sample solution was then added. Sample solutions included recombinant human FAP standard (FIG. 17A), human serum at varying dilutions (FIG. 17B), FAP homologues (FIG. 17C), serum samples from healthy patients (FIGS. 18 and 19), serum samples patients with metastatic colorectal cancer (FIG. 18), serum samples from patients with cardiovascular disease (FIG. 19), sodium citrate plasma samples from healthy patients (FIG. 20), and sodium citrate samples from patients with symptomatic carotid atherosclerotic plaques (FIG. 20). Sample solutions were added at a total volume of 30 μL. The plate was washed three times with 40 μL PBS and blotted dry. […] The plate was then washed again three times with 3×PBS and blotted dry. 30 μL TMB (3,3′,5,5′-Tetramethylbenzidine) solution was then added to each well and allowed to develop for 5-10 minutes at room temperature. The reaction was then stopped by the addition of 30 μL 1M H2SO4, and absorbance at 450 nm was read with a plate reader.

For assay [5], the target named is T5, recombinant human Prolyl Oligopeptidase/Prolyl Endopeptidase (POP/PREP) (human, UniProt P48147 1-710).
T5 construct: Bought active enzyme; also called rhPOP/PREP; BPS Bioscience 80105
T5 sequence (looked up): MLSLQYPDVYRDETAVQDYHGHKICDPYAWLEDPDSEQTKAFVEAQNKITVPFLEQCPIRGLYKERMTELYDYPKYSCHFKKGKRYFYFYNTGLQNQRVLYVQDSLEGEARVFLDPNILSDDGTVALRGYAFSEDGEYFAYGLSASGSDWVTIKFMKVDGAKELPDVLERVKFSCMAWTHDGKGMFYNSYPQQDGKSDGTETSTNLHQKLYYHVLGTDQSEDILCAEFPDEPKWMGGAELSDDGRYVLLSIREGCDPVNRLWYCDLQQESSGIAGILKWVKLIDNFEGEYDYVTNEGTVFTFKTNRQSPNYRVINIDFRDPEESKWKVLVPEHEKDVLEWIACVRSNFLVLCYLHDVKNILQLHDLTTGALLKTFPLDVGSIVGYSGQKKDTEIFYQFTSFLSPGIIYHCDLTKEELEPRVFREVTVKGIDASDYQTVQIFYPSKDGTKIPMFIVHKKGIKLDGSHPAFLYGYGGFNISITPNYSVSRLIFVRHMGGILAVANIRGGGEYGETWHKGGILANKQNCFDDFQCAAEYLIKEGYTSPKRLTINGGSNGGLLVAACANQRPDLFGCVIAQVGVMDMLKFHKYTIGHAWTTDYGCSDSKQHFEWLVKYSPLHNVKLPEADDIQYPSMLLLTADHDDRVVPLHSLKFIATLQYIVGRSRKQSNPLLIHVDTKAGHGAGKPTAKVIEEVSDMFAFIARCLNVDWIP
The description is as above. How it is done: as §1

Assay [6] deals with T6, recombinant human Dipeptidyl Peptidase 9 (DPP9) (human, UniProt Q86TI2 1-863, limits assumed).
T6 construct: Bought active enzyme; also called rhDPP9
Described as above. How it is done: as §1

T4 sequence (P27487 29-766 limits assumed): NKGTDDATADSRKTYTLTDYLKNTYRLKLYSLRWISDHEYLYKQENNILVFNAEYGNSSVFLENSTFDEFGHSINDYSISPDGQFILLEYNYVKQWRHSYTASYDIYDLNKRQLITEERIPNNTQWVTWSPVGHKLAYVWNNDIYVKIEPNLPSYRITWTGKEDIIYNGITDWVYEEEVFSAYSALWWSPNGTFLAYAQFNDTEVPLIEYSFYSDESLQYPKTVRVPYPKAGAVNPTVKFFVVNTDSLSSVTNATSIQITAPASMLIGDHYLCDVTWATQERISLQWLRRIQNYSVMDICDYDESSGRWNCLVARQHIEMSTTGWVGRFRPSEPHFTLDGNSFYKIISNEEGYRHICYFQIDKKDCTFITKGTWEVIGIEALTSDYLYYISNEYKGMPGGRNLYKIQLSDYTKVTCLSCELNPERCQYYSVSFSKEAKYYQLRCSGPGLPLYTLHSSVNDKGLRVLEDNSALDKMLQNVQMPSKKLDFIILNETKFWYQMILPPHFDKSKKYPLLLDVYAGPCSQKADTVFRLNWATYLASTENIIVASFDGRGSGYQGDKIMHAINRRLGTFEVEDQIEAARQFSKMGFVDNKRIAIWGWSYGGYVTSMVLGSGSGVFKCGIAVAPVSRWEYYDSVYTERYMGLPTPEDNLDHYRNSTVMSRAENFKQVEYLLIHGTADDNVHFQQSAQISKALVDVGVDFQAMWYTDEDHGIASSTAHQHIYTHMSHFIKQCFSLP
T6 sequence (Q86TI2 whole entry): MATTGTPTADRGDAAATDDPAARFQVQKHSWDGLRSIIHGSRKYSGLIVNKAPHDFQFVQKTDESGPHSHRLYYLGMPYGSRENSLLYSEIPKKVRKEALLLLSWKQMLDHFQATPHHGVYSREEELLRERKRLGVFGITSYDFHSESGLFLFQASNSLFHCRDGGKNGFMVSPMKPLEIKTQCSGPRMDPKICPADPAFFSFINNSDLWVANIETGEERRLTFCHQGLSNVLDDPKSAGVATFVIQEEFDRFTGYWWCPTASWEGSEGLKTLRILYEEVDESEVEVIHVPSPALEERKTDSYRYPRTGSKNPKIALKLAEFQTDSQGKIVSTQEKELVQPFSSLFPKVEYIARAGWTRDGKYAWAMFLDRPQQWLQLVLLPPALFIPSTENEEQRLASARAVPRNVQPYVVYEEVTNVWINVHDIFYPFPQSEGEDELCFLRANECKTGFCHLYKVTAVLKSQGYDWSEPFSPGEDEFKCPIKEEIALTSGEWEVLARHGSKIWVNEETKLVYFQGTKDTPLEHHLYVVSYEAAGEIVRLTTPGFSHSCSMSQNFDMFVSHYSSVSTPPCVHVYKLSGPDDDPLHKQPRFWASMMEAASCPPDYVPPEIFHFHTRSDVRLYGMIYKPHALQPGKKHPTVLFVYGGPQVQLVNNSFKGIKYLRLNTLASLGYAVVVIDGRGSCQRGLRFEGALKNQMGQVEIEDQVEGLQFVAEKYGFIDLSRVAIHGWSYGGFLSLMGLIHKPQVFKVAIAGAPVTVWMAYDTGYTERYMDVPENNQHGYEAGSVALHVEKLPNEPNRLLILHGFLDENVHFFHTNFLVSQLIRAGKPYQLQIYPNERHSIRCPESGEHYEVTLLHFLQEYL
T2 sequence (P02769 25-607 limits assumed): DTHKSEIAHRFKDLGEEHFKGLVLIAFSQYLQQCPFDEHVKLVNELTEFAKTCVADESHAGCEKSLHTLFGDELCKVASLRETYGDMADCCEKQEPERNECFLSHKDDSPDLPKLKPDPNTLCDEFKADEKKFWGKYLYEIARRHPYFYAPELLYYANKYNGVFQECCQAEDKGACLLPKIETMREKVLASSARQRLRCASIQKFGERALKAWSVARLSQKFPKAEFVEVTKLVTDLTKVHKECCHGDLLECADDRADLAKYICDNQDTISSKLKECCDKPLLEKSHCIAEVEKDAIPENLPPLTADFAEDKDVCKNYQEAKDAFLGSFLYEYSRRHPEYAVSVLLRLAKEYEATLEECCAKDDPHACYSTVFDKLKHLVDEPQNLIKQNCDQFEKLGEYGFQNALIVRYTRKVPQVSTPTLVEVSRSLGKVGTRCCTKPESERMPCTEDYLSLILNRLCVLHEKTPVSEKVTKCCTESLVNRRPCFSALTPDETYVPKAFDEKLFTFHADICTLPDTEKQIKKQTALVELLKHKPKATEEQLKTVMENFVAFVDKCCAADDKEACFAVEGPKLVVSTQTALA

B1: NI-206.82C2 (antibody, V domains shown)
VH: QVQLQQSGPGLVKPSQTLSLTCAISGDSVSSNSVTWNWIRQSPSRGLEWLGRTYYRSKWYNDYAVSVKGRITINPDTSKNQFYLQLKSVTPEDAAVYYCARDSSILYGDYWGQGTLVTVSS
VL: QAVLTQPSSLSASPGASASLTCTLPSGINVGTYRIFWFQQKPGSPPQYLLSYKSDSDNHQGSGVPSRFSGSKDASANAGILLISGLQSEDEADYYCMIWHSSAWVFGGGTKLTVL
notes: Recombinantly expressed as complete human IgG1 with a lambda light chain; HRP-labelled in the homologue and sandwich ELISAs, Cy5-labelled in flow cytometry; also called HRP-labelled 82C2; Cy5 labelled 82C2
Consider B1, for which the EC50 (in general, the concentration giving half of the maximal effect) in assay [1] was 0.61 nM. The binding result is “no binding” in assay [2]; “no binding” in assay [3]; “no binding (tested: 250 ng/mL)” in assay [4]; “no binding (tested: 250 ng/mL)” in assay [5]; “no binding (tested: 250 ng/mL)” in assay [6].
